Results from patent US9902783B2, “Antibodies and pharmaceutical compositions containing same useful for inhibiting activity of metalloproteins” (Yeda Research and Development Co. Ltd., priority 2007, dated 2018).
Values joined by “and” are separate entries in the source; they are usually repeats but may differ in a detail not shown here. Equal values may be shown once. “Also recorded” adds a separate entry of the source.

T1: brockii alcohol dehydrogenase (TbADH) (Thermoanaerobacter brockii, UniProt P14941)
T1 sequence (P14941 1-352): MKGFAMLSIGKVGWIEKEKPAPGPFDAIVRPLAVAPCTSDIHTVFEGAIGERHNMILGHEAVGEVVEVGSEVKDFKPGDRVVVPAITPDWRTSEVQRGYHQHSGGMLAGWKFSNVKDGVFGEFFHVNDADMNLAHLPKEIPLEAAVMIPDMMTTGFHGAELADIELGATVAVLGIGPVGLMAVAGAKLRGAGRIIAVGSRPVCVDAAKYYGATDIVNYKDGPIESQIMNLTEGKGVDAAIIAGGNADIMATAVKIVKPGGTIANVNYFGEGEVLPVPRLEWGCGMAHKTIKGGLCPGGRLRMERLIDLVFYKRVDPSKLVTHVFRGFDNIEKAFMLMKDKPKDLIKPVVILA

T2: Alcohol Dehydrogenase (TbADH) (Thermoanaerobacter brockii, UniProt P14941)
T2 sequence (P14941 1-352): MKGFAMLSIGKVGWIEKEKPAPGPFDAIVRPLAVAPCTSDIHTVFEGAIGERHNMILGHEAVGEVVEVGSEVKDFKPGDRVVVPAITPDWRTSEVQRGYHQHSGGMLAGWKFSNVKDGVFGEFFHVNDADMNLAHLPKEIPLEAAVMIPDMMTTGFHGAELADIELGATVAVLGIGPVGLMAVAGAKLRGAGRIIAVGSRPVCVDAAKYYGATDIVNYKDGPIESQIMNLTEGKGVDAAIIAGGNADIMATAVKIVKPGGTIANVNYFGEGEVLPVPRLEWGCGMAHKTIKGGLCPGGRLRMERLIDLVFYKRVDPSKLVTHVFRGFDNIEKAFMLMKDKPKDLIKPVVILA


Experiments:
Carbonic Anhydrase (CA) [1] = assay: functional inhibition experiment, Carbonic Anhydrase; type: biochemical; details: for inhibition of Carbonic Anhydrase: in vitro functional inhibition
Text: (§1) The selectivity of anti CoTCPP and anti Imisdp was further challenged, by testing their cross reactivity with non related zinc dependent enzymes—Carbonic Anhydrase (CA) and brockii alcohol dehydrogenase (TbADH). Similar to active MMPs CA contains a zinc ion that is tetrahedraly coordinated to three histidine residues and a water molecule, TbADH contains a catalytic zinc ion that is tetraheadrally coordinated to four different amino acid residues, histidine, cysteine, aspartate and glutamate. […] Anti CoTCPP mAb was also tested for its cross reactivity with related physiological porphyrins such as the Heme group within Myoglobin and Hemoglobin and vitamin.
(§2) 6C6 was also tested for cross reactivity with different zinc dependent metalloproteases, Carbonic Anhydrase and Alcohol Dehydrogenase. Analogous to MMPs, Carbonic Anhydrase (CA) has a catalytic zinc ion tetrahedraly coordinated to three histidine ligands and a water molecule. Consequently, several potent small molecule MMP inhibitors (of the sulfonylated amino acid hydroxamate type) also act as efficient CA inhibitors and vice versa. Some N-hydroxysulfonamides investigated previously as CA inhibitors also show inhibitory properties against MMPs [Scozzafava, A. and C. T. Supuran, J Med Chem, 2000. 43(20): p. 3677-87]. The active site of Alcohol Dehydrogenase from thermophilic bacterium (TbADH) includes a different zinc-protein moiety in which zinc is bound to histidine, cysteine, aspartate and glutamate located inside a crevice.

[2] = target: T1, brockii alcohol dehydrogenase (TbADH); assay: immuno affinity binding experiment, alcohol dehydrogenase; set-up: species or system thermophilic bacterium
Text: as §1

MT1-MMP (MMP-14) = MT1-MMP (MMP-14) (Homo sapiens, UniProt P50281); assay: kinetic assay with fluorogenic peptide substrate, MT1-MMP; type: biochemical; details: for Ki: fit to competitive inhibition, fluorogenic peptide substrate
Carbonic Anhydrase (CA) [3] = assay: immuno affinity binding experiment, Carbonic Anhydrase
Text: as §1

TACE (ADAM-17) = TACE (ADAM-17) (Homo sapiens, UniProt P78536); assay: kinetic assay with fluorogenic peptide QF-45, TACE; type: biochemical; details: for inhibitory effect toward TACE: in-vitro fluorescence enzymatic activity assay
Sequence of TACE (ADAM-17) (P78536 215-824, species assumed): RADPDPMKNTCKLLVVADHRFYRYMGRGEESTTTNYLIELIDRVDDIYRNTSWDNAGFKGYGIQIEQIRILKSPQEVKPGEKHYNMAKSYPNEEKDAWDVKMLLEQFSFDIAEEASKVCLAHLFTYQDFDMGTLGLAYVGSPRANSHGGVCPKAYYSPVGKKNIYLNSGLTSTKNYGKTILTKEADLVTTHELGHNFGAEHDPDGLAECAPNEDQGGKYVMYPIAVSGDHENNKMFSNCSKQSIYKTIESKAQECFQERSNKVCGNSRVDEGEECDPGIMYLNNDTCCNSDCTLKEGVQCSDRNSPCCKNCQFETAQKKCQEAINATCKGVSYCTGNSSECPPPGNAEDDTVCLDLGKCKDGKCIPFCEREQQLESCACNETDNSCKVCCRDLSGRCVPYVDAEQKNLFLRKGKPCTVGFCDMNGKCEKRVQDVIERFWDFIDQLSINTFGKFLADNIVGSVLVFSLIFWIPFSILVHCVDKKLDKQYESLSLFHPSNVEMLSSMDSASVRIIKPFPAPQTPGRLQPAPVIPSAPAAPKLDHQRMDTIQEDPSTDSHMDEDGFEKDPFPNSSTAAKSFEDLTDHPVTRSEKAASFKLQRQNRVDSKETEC

MMP-9 = assay: kinetic assay with fluorogenic peptide substrate, MMP-9; type: biochemical, human; details: for mode of inhibition of MMP-9: Lineweaver-Burk plot; for IC50: Table 4; for inhibition of proteolytic activity of MMP-9: continuous fluorometric assay
Sequence of MMP-9 (P14780 107-444 limits assumed): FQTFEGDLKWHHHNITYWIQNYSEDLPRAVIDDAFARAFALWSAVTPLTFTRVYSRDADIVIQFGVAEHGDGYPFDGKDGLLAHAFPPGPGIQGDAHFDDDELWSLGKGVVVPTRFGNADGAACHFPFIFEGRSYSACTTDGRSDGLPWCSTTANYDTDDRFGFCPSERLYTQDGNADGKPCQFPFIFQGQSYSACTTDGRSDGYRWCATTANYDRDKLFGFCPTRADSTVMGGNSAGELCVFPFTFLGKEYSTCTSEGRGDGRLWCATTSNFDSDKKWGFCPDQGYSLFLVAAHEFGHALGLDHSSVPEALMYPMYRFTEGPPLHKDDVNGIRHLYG

[4] = tested on: cell surface gelatinolytic activity of HT1080 cells; assay: in situ zymography with DQ-gelatin; type: cell-based, human
Experimental: To localize net gelatinolytic activity of MMPs by in situ zymography, fluorescein isothiocyanate-labeled DQ gelatin that is intramolecularly quenched (Molecular Probes) was used as a substrate for degradation by gelatinases. Proteolysis by gelatinases yields cleaved fluorescein isothiocyanate-gelatin peptides and the localization of this fluorescence indicates the sites of net gelatinolytic activity. Briefly, Human fibrosarcoma HT1080 cells (which produce MMP-2, MMP-9 and MT1-MMP) were plated on 12-mm coverslips. […] Untreated cells served as negative control for this experiment. Cells were washed with PBS and then incubated with zymography reaction buffer (0.05 M Tris-HCl, 0.15 M NaCl, 5 mM CaCl2, and 0.2 mM NaN3, pH 7.6, the high concentration of azide prevented the gelatin from being phagocytosed and thus allowing cell surface gelatinolytic activity to occur) containing 60 ug/ml DQ gelatin at 37° C. overnight. […] At the end of the incubation period, without fixation or further washes, gelatinolytic activity of the MMPs was localized and photographed by fluorescence microscopy and images were acquired by Spot digital camera.
To confirm the inhibitory activity of anti CoTCPP mAb at cellular level, the effect of the antibody was examined on gelatinolytic activity of human fibrosarcoma HT1080 cells that constitutively secrete MMP-2 and 9 by in situ zymography. To localize gelatinolytic activity of MMPs by in situ zymography, fluorescein isothiocyanate-labeled gelatin that is intramolecularly quenched (DQ-gelatin) was used as substrate. Proteolysis by gelatinases yields cleaved fluorescein isothiocyanate-gelatin peptides and the localization of this fluorescence indicates the sites of net gelatinolytic activity.

MMP-2 = assay: kinetic assay with fluorogenic peptide substrate, MMP-2; type: biochemical, human; details: for inhibition of proteolytic activity of MMP-2: continuous fluorometric assay
[5] = competitive ELISA, affinity of mAbs toward their immunizing hapten; details: concentration of soluble hapten for 50% binding
Experimental: Supernatants of the growing hybridomas were screened for antibodies reactive with ZnTCPP, CoTCPP or Imisdp using direct ELISA in which respective hapten-BSA (3 μg/ml in PBS) was coated to Nunc maxisorp plates. The coating was performed at 4° C. overnight and incubation with antibodies at 20° C. for 1 h. HRP-conjugated anti-mouse mAb (Sigma) was used as the secondary antibody and 2,2′-azino-bis (3-ethylbenzthiazoline-6-sulphonic acid, ABTS, Sigma) was used as substrate. PBS containing 0.005% v/v Tween 20 (PBST) was used as washing reagent. The dilution buffer was PBS. A602 was recorded by microplate reader in […]luor Plus spectrometer (Tecan, Austria). As control supernatants were incubated with BSA coated plates in the same manner Absorbance values above 0.5 millioptical density were considered as positive.
Different dilutions of hybridoma supernatant were incubated with hapten-BSA coated plates following the steps described earlier. Titration curve was plotted and the titer dilution was determined at 50% of binding. Supernatants diluted to the titer concentration were preincubated with soluble ZnTCPP, CoTCPP or Imisdp compounds for 30 minutes and then transferred to hapten-coated microtiter plates following the steps described previously. The estimated dissociation constant was the concentration of soluble hapten required to attain 50% binding.

[6] = target: T2, Alcohol Dehydrogenase (TbADH); assay: functional inhibition experiment, alcohol dehydrogenase; type: biochemical, thermophilic bacterium; details: for inhibition of TbADH: in vitro functional inhibition
Text: as §1, §2

TACE = TACE (Homo sapiens, UniProt P78536); assay: immuno affinity binding assay, TACE; details: purified enzyme
Sequence of TACE (P78536 215-824, species assumed): as the sequence (P78536 215-824, species assumed) above
Experimental: MAbs (10 μg) were incubated with anti mouse IgG Agarose beads (Sigma) overnight at 4° C. in PBS. After washing unbound antibody, purified Pro-MMP-2, Pro-MMP-9 MMP-2 catalytic domain, MT1 catalytic domain or TACE (2 μg), were added following 2 h incubation at RT. The beads were collected by centrifugation and washed three times with PBS. The proteins that remained bound to the beads were eluted with SDS sample buffer, fractionated by SDS-PAGE, and detected by staining with Coomassie blue.

| Molecule | inhibition of Carbonic Anhydrase (Carbonic Anhydrase (CA) [1]) | binding to TbADH [2] | binding to Carbonic Anhydrase (Carbonic Anhydrase (CA) [3]) | inhibitory effect toward TACE (TACE (ADAM-17)) | mode of inhibition of MMP-9 (MMP-9) | IC50 (MMP-9) | inhibition of proteolytic activity of MMP-9 (MMP-9) | inhibition of proteolytic activity of MMP-2 (MMP-2) | Kd [5] | inhibition of TbADH [6] | other results |
| --- | --- | --- | --- | --- | --- | --- | --- | --- | --- | --- | --- |
| 6C6: monoclonal antibody, IgG2a, raised against the hapten Imisdp; MMP-2 and MMP-9 inhibitory; SEQ ID NO: 1 (protein, 6c6 mAb light chain) CMETTQTPLSLPVSLGDQASISCRSSQSIVHSNGNTFLEWYLQKPGQSPKLLIYKVSNCRFSGVPDRFSGSGSGTDFTLKISRVEAEDLGVYYCFQASHVPPTFGGG | no binding or inhibition | no binding | no binding | did not display inhibitory effect | competitive inhibition profile | 4.5 ± 0.2 µM | inhibited | inhibited | 90 nM | no binding or inhibition | inhibitory effect toward Carbonic Anhydrase (Carbonic Anhydrase (CA) [1]; mAb concentrations up to 30 μM): no inhibitory effect; IC50 (MT1-MMP (MMP-14); Table 4): 14.4 ± 0.7 µM; Ki (MT1-MMP (MMP-14)): 14.4 µM and 15 µM; Ki (MT1-MMP (MMP-14); listed as anti Imisdp mAb): 10 µM; IC50 (TACE (ADAM-17); Table 4): > 30 µM; inhibition of TACE (TACE (ADAM-17); mAb concentrations of up to 30 μM): neither MMP-7 nor TACE were inhibited to any measurable extent; cell surface gelatinolytic activity ([4]; 5 μM mAb): significantly decreased; also recorded: significantly inhibited; IC50 (MMP-2; Table 4): 3000 ± 200 nM; inhibitory effect toward TbADH ([6]; mAb concentrations up to 30 μM): no inhibitory effect |
| 13E11: monoclonal antibody, IgG2b, raised against the hapten CoTCPP (antibody, V domains shown, 13E11 mAb heavy chain; 13E11 mAb light chain, monoclonal antibody, IgG2b, raised against the hapten CoTCPP) VH: EGGGLVQPGGSRKLSCAASGFTFTSFGMHWVRQAPEKGLEWVAYISSGNEIIYYADTVKGRFTISRDNPKNTLFLQMTSLRSEDTAMYYCARNYYRYGFYVMDYWGQG VL: EIVVTQSPAILSASPGEKVTMTCRASSSVSYMHWYQQKPGSSPKPWIYATSNELASGVPARFSGSGSGTSYSLTISRVEAEDAATYYCQQWISNPLTFGAG | no binding or inhibition | no binding | no binding | no inhibitory effect | competitive inhibitor | 15 ± 0.8 µM | inhibited | inhibited | 90 nM | no binding or inhibition | binding to TACE (TACE): no binding was detected; inhibitory effect toward MT1-MMP (MT1-MMP (MMP-14); in-vitro fluorescence enzymatic activity assay): no inhibitory effect; cell surface gelatinase activity ([4]; 1 μM mAb, listed as anti CoTCPP mAb): reduced; also recorded: significantly inhibited |
